These results are taken from paper PMC9769622, “ATPase Activity of Bacillus subtilis RecA Affects the Dynamic Formation of RecA Filaments at DNA Double Strand Breaks” (mSphere, 2022).

For assay [1], the target named is T1, RecA (RecAWT) (Bacillus subtilis, UniProt P16971).
T1 construct: 6xHis tag kept (text says C-terminal, also written 6xHis-RecA); pET28a, E. coli BL21(DE3); about 38 kDa monomer
T1 sequence (P16971 11-348): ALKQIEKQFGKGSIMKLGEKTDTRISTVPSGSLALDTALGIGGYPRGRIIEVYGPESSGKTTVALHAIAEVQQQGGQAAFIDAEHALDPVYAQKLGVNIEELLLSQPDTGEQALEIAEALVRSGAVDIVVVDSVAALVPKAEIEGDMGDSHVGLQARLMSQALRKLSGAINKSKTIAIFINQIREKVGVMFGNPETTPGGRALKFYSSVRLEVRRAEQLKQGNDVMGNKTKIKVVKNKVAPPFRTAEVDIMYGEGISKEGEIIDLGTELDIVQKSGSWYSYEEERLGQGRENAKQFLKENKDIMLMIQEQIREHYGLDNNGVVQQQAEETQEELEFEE
The assay can be described thus: malachite green phosphate release; kinetic analysis of ATP binding. The class given is biochemical. To be noted: with salmon sperm ssDNA, Mg2+, pH 7.4, 37 C.

Assay [2] has as its target Bacillus subtilis RecA K70A Walker A mutant, hexa-histidine fusion protein (B. subtilis) (UniProt P16971). The assay can be described thus: mass photometry; protein alone; 2 uL sample added to 18 uL PBS pH 7.4, room temperature; 137 mM salt; poly-L-lysine coated coverslips.
Assay [3] deals with Bacillus subtilis RecA K70R Walker A mutant, hexa-histidine fusion protein (B. subtilis) (UniProt P16971). The description is as above.
Assay [4] shares this target. The assay can be described thus: mass photometry; protein mixed with 32 nt ssDNA oligonucleotides and 1 mmol/l ATP, incubated 10 min at 37°C; measured in PBS pH 7.4.
The target of assay [5] is Bacillus subtilis RecA, wild type, hexa-histidine fusion protein (B. subtilis) (UniProt P16971). The assay can be described thus: mass photometry; protein alone; 2 uL sample added to 18 uL PBS pH 7.4, room temperature; 137 mM salt; poly-L-lysine coated coverslips.

As for `Nc1ncnc2c1ncn2[C@@H]1O[C@H](COP(=O)(O)OP(=O)(O)OP(=O)(O)O)[C@@H](O)[C@H]1O` [ATP], in assay [1], the “malachite green phosphate release; kinetic analysis of ATP binding” value was “activity of wild type RecA comparable to that of E. coli RecA”.

In the case of “Bacillus subtilis RecA K70A Walker A mutant, hexa-histidine fusion protein (from UniProt P16971 11-348) (natural protein)”, the stoichiometry N in assay [2] amounted to 2.

For “Bacillus subtilis RecA K70R Walker A mutant, hexa-histidine fusion protein (from UniProt P16971 11-348) (natural protein)”, the stoichiometry N in assay [3] and in assay [4] was 2 each time.

In the case of “Bacillus subtilis RecA, wild type, hexa-histidine fusion protein (from UniProt P16971 11-348) (natural protein)”, the stoichiometry N in assay [5] is 2.
